This note sets out measurements from article PMC3753642.

The target in data set [1] is T1, Hfq:R16A (Escherichia coli, UniProt P0A6X3 1-102, R16A). Description: fluorescence anisotropy. A general note: Polarisation of emitted light reports the rotation of a fluorescent probe.
Data set [2] addresses T2, Hfq WT (Escherichia coli, UniProt P0A6X3 1-102). Description: fluorescence anisotropy.
Data set [3] deals with Hfq:S38W (Escherichia coli, UniProt P0A6X3 1-102, S38W). Description: Trp fluorescence quenching.
The target of data set [4] is Hfq:R16A,S65C-Cy3 (Escherichia coli, UniProt P0A6X3 1-102, R16A;S65C). Description: stopped-flow FRET.
Data set [5] concerns the target T3, Hfq TM (Escherichia coli, UniProt P0A6X3 1-102, R16A;R17A;R19D). Description: fluorescence anisotropy.
The target in data set [6] is T1, Hfq:R16A. Description: fluorescence anisotropy. This is another data set of the same source.
The target of data set [7] is T2, Hfq WT. Description: fluorescence anisotropy. This is another data set of the same source.
Data set [8] concerns the target T3, Hfq TM. Description: fluorescence anisotropy. The source holds these as a separate data set.

Like-named read-outs stand apart in the source and are kept apart here.

Broadly, the Kd is the constant that tells how readily two partners part at equilibrium. A high value points to a looser complex. For the molecule GUGGUCAGUCGAGUGGUUUUUU (ssRNA) [Oligo CU], the Kd in data set [1] was found to be 0.07 nM; in data set [2], 0.1 nM. Besides, in data set [3], the binding result is recorded as “binds”.

As for CGAAUUUUUUAAGUGC (ssRNA) [D16], the binding result in data set [4] is listed as “binds”. Also, the dissociation constant (Kd) in data set [5] was 17.5 nM; in data set [6], 39.8 nM; in data set [7], 22.5 nM.

Regarding CGAAUUUUUUAAGUGC (ssRNA) [D16 unlabeled], the binding result in data set [3] is reported as “binds”.

For the molecule GUGGUCAGUCGAGUGGAAAAAAAAAAAAAAAAAA (ssRNA) [Oligo CA], in data set [3], the binding result is “binds”.

With AAAAAAAAAAAAAAAAAA (ssRNA) [A18], the results for the Kd in data set [7], in data set [1] and in data set [8] were 13.2 nM, 2.3 nM and 16.8 nM, respectively.
